In PMC8351736 (Molecular Biology of the Cell, 2021):
One block for each binder: values may come before it.

What was measured:
[1] = target: T1, 6-histidine-tagged actin capping protein (His-Cap1/2 heterodimer) (S. cerevisiae, UniProt P28495 1-268; P13517 1-287); experiment: pull-down
T1 sequence (looked up) 1: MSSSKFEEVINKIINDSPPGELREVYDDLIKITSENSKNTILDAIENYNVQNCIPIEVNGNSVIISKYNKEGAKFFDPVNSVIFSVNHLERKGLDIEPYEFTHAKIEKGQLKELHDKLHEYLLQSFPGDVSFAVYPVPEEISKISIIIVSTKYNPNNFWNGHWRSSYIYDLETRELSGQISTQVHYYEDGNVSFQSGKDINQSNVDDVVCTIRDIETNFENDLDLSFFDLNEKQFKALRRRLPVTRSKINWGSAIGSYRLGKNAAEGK
T1 sequence (looked up) 2: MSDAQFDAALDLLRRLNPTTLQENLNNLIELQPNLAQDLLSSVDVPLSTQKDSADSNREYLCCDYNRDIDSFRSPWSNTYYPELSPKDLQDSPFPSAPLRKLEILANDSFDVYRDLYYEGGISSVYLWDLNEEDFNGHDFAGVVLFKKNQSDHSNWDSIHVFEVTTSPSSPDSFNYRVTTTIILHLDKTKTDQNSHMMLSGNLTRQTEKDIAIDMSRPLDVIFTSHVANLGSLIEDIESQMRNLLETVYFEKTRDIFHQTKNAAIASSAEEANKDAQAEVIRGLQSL

[2] = target: T2, 6-histidine-tagged Tda2 (His-Tda2) (S. cerevisiae, UniProt P40045 2-126); experiment: pull-down
T2 sequence: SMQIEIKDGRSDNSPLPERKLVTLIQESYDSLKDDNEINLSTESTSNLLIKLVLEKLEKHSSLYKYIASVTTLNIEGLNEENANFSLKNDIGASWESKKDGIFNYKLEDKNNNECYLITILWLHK

- binding result [1]: binds
B1: Aim21^1-535-GST (domain or fragment, S. cerevisiae, UniProt P40563 1-535, looked up)
chain: MPSEVTPKVPERPSRRKTSELFPLSGSESGDIKANSEPPTPAGTPNVPTRRPILKAKTMTSFESGMDQESLPKVPLQRPVRRSTTEELNNVMNNTSKELEEIESLISKHNIHNVSRKKSPTSVEEGKVAAIHQNGQRSASDNKTSTNPSPLEKNEHEGAEGNESAISPSNLVNKSNNEVTEHSDSEDLTEKQKVHAALDNEAGDRSHFEEKLIPGDMKVQVDVSKDVEEGSLNALPPSGITESDDKAEKFTKHPESSLEELQKHQEQQEEKIFQNPTDEESTTSLNEKQEGKDNMEVNSQPQGPSDTETVIAATSSNVPSQIASEEENDVPVIPRSRPKKDFEAHVQKEELPNTQEKRVSEECDSTLISTEEESKIPKIPSERPKRRAPPPVPKKPSSRIAAFQEMLQKQQQQDLHNNGNSSATTASADIAKKHTDSSITSDTTKADFTSKLNGLFALPGMVNPGQLPPSLEKKLSSPDTESKLGPQDQSQAKTGPLGGTRRGRGPRGRKLPSKVASVEKIEEDDNTNKIEIFNN

- binding result [2]: binds
Binder: KLPSKVASVEKIEEDDNTNKIEIANNWNVSSSFSKEKVLIDTTPGE (domain or fragment, S. cerevisiae, UniProt P40563 510-555, looked up) [GST-Aim21^510-555 F533A]
